Test [1] addresses 牛结节性皮肤病病毒(LSDV) P32蛋白,原核表达,去掉C端跨膜区 (Lumpy skin disease virus (LSDV)). Nature of the test: ELISA of the ascites-purified monoclonal antibody on P32. A general note: In an ELISA, binding on a coated surface is turned into a signal by an enzyme label.
For test [2] the target is unchanged.

Substitutions are numbered along the chain they refer to.

B1: P32蛋白单克隆抗体,细胞株编号701 (antibody, V domains shown)
VH: QSAPGLVQASQCLSITCTVSGFSLTTYAVHWVRQPPGQGLEWQGVIWSGGRTDYNAAFMCRLSISKDNSNSQDFFKMNSLQADDTAIYYCARNYYGGSLDYWGQGTTLTVSS
VL: DIVLTQTPASLAVSLGQRATISSRASNSVSTSRYSYMHWNQQKPGQPPRLLIYLVSNLESGVPARFSGSGSGTDFTLNIHPVEEEDAATYYCQHIRELTFGGGTKLEIK
For the molecule B1, in test [1], the ELISA效价 (titer (1:dilution)) is over 128000. The 检测限 in test [2] was found to be 10 ng/mL.

B2: P32蛋白单克隆抗体,细胞株编号901 (antibody, V domains shown)
VH: QVQLNQSGPGLVQPSQSLSITCTLSGFSLTTYAVHWVRQSPGKGLEWLGVIWIGGRTDYNAAFISRLSISKDNSKSQVFFEMNSLQPNDTAIYYCARNYYGGSFDYWGQGTTLTVS
VL: B1 VL with T7S, S23Y, A25D, N27K, R33G
Consider B2, for which, in test [1], the ELISA效价 (titer (1:dilution)) was over 128000. In test [2], this molecule displayed a 检测限 of 10 ng/mL.

The values above are taken from patent CN112111006A.
